In data set [1] the test system is MS2 coat protein. As to the kind of experiment: apparent KD of MS2 coat protein, switch ON state; designed switch direction (-1 OFF switch, 1 ON switch): -1; higher = weaker reporter binding. The conditions noted are these: FMN input: 0 or 200 uM; Eterna round: R93 (includes R88 designs). The method in brief: (§1)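 Illumina sequencing clusters were used for on-chip transcription of designed RNA switches. Titration with SNAP-549-labelled MS2 coat protein followed, in twofold steps from 0.7 or 1.5 nM to 3 µM in 100 mM Tris-HCl pH 7.5, 80 mM KCl, 4 mM MgCl2, without or with constant ligand. Apparent KD is each design's median of fits to normalised cluster binding curves.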

The subject of data set [2] is MS2 coat protein. In words: apparent KD of MS2 coat protein, switch OFF state (with FMN for OFF switches, without FMN for ON switches); designed switch direction (-1 OFF switch, 1 ON switch): -1; higher = weaker reporter binding. The conditions noted are these: FMN input: 0 or 200 uM; Eterna round: R93 (includes R88 designs). A digest of the protocol: as §1

Turning to “AACAGUACAGGAUAUACAUGAGGAUCACCCAUGUGAGAAUUAAGUGGAGGACCACAAAGUAGAAGGGUACUGAA [Mat - Exclusion 3 - JL mod - D9]”, the “apparent KD of MS2 coat protein” value in the data set on MS2 coat protein [1] worked out at 56.9 nM; in the data set with MS2 coat protein [2], 109 nM.

As to “AAAAAGAUAGGAUAUACGUACAUGUCAAAAGACGUGAAGGGACAUGAGGAUCACCCAUGUAGAAGGGUUAAAAA [JL Wide Open 41]”, the “apparent KD of MS2 coat protein” value in the data set on MS2 coat protein [1] came to 285 nM; with MS2 coat protein [2], 45.3 nM.

As for “AACAGUACAGGAUAUACAUGAGGAUCACCCAUGUGAGAAUUAAGUGGCGUACCACAAAGUAGAAGGGUACUGGA [Maslow Revisited]”, the entries for the “apparent KD of MS2 coat protein” value in the data set on MS2 coat protein [1] and in the data set on MS2 coat protein [2] were 35 nM and 173 nM, respectively.

Consider “ACAAGACAUGAGGAUCACCCAUGUGAGGAUAUGCUCGGAUGACAUGACGUUAGCUAACGCAGAAGGCACAAUAA [Exclusion 1]”, for which the “apparent KD of MS2 coat protein” value with MS2 coat protein [1] is 28.7 nM; in the data set on MS2 coat protein [2], 36.7 nM.

For the sequence “AAAAGCAAAGGAUAUACAUGAGGAUCACCCAUGUAAAAAAGAAAAGAGUAUAUGGCAUGUAGAAGGUUGCGUGG [Rabisoxe]”, the “apparent KD of MS2 coat protein” value is 26.2 nM in the data set on MS2 coat protein [1] and 54.9 nM with MS2 coat protein [2].

For “AAGAUGUAAGGAUAUGCUGCUCGUCACAAAAGUGAUGAGUAGCAGAAGGUACAUGAGGAUCACCCAUGUAAAGA [JL eternac mod 10]”, the “apparent KD of MS2 coat protein” value in the data set with MS2 coat protein [1] worked out at 31.5 nM; in the data set on MS2 coat protein [2] it was 44 nM.

Regarding “AAAAAACAUGAGGAUCACCCAUGUCAGGAUAUCGAAAGAAAAAAAAAGAAAAAAAAAACGAGAAGGGACAAAAA [Amethyst 28]”, the “apparent KD of MS2 coat protein” value in the data set with MS2 coat protein [1] came to 56.1 nM; in the data set with MS2 coat protein [2], 30.3 nM.

Turning to “AAAAAACAUGAGGAUCACCCAUGUCAGGAUAUGCGAAGCAAAAAAAAAAAAAAGCGAAGCAGAAGGGACUAAAA [Exclusion1 Malc#5]”, the “apparent KD of MS2 coat protein” value stood at 38.2 nM with MS2 coat protein [1] and 32.9 nM with MS2 coat protein [2].

Take “ACAGUUACAGGAUAUACAUGAAUAACUUCAAAGAAAACUCUACAUGAGGAUCACCCAUGUAGAAGGGUAACUGA [Ex2 Design 200 (fingers crossed): Random 18]”: the entries for the “apparent KD of MS2 coat protein” value in the data set on MS2 coat protein [1] and with MS2 coat protein [2] were 14.3 nM and 18.8 nM, respectively.

Turning to “AAAAAGUCAGGAUAUGCACAAAAAAAAAUAAAAAAAAAAGUGCAGAAGGGACAUGAGGAUCACCCAUGUAAGAU [Mat - Exclusion 4 - Mayanna - D118]”, the “apparent KD of MS2 coat protein” value amounted to 81 nM in the data set on MS2 coat protein [1] and 77.2 nM in the data set on MS2 coat protein [2].

As for “AAUAUGUCAGGAUAUGUGUAAAGAAUAAAAGAAAUAACAACACAGAAGGGACAUGAGGAUCACCCAUGUCAACA [May 33]”, the “apparent KD of MS2 coat protein” value in the data set on MS2 coat protein [1] worked out at 24.8 nM; in the data set on MS2 coat protein [2] it was 18 nM.

“AAAUGAUGAGGAUAUACAUGAGGAUCACCCAUGUGUAAAAAUAAAUACACAAAAGAAAGUAGAAGGCAUCAAAG [Mat - Exclusion 3 - Mayanna mod - D119]”: the “apparent KD of MS2 coat protein” value with MS2 coat protein [1] turned out to be 27.8 nM; in the data set with MS2 coat protein [2], 88.6 nM.

On to “ACAAAACAUGAGGAUCACCCAUGUGAGGAUAUGCGAAACAAACAAACAAACAAACAAAGCAGAAGGCACAACAA [Ex 1 Tesla 3]”, for which the “apparent KD of MS2 coat protein” value stood at 19.5 nM in the data set on MS2 coat protein [1] and 31 nM with MS2 coat protein [2].

As to “AAGAAGUCAGGAUAUGCUGCUCGUCACUUGCGUGAUGAGUAGCAGAAGGGACAUGAGGAUCACCCAUGUAAAGA [Opal 14]”, the figures for the “apparent KD of MS2 coat protein” value with MS2 coat protein [1] and in the data set with MS2 coat protein [2] were 50.7 nM and 65.6 nM, respectively.

With “AAAGGACUAGGAUAUACAUGAGGAUCACCCAUGUAAAAAACAUAAUAAAAGAACUUAUGUAGAAGGAGUCCAAA [69%, Moding Meechl, 9]”, the “apparent KD of MS2 coat protein” value with MS2 coat protein [1] is 31.7 nM; in the data set on MS2 coat protein [2], 93.7 nM.

Take “AAAAAGUCAGGAUAUAUGCGAAAAAUAAAAAAAAUAAAAGCAUAGAAGGGACAUGAGGAUCACCCAUGUUAAAA [Ex 4 May 16]”: the “apparent KD of MS2 coat protein” value in the data set on MS2 coat protein [1] stood at 36.6 nM; in the data set on MS2 coat protein [2] it was 26.6 nM.

As to “AAAAAGACAGGAUAUACGUGAAAAAUAAAAAUGUAAAAAAAACAUGAGGAUCACCCAUGUAGAAGGGUCAAAAA [Ecx-I 62% 3]”, the “apparent KD of MS2 coat protein” value in the data set on MS2 coat protein [1] worked out at 59.3 nM; in the data set with MS2 coat protein [2], 61.8 nM.

Turning to “GUGUACAGAGGAUAUACUAAAGCAUGGAAACAUGCAAGAUCACAUGAGGAUCACCCAUGUAGAAGGCUGUACAC [Ex2: 741]”, the “apparent KD of MS2 coat protein” value is 62.3 nM in the data set with MS2 coat protein [1] and 529 nM with MS2 coat protein [2].

Take “AAAAAGUCAGGAUAUCGUAGAAAAAUAUAAAUAAGAAAGUACGAGAAGGGACAUGAGGAUCACCCAUGUAAAAA [Ex 4 #1]”: the “apparent KD of MS2 coat protein” value in the data set with MS2 coat protein [1] amounted to 50 nM; with MS2 coat protein [2] it was 36.8 nM.

For “AAAUCAGUAGGAUAUACGAUUUUAUGCUAGAUAGAGGAACCACAUGAGGAUCACCCAUGUAGAAGGACUAGAUA [EX2 Malc#24]”, the “apparent KD of MS2 coat protein” value in the data set with MS2 coat protein [1] came to 14.5 nM; in the data set on MS2 coat protein [2], 16.4 nM.

Take “ACUGAUACAGGAUAUACAUGAGUGAAAAAAGUAAAUCCACUACAUGAGGAUCACCCAUGUAGAAGGGUAUCAGA [Ex2 Design 179: Random 5B]”: the “apparent KD of MS2 coat protein” value with MS2 coat protein [1] turned out to be 52.1 nM; in the data set with MS2 coat protein [2] it was 42.7 nM.

Turning to “AAGAAGGUAGGAUAUACUAGGGCAACUAAUGCAAAGAUAAAACAUGAGGAUCACCCAUGUAGAAGGGCCAGAAA [JR_Exc002_Sub401]”, the “apparent KD of MS2 coat protein” value was 33.8 nM with MS2 coat protein [1] and 35.4 nM in the data set with MS2 coat protein [2].

As to “AAAAAACAUGAGGAUCACCCAUGUCAGGAUAUCCGGUUCUUGAAAAAAAAGAGGCGUUGGAGAAGGGACAUUCC [Chica Displaced 13 - Jieux - Exclusion 1]”, the “apparent KD of MS2 coat protein” value in the data set on MS2 coat protein [1] stood at 25 nM; with MS2 coat protein [2], 38.7 nM.

With “CUCAUGUUAGGAUAUAAAUGAAAUGAAGUGAAAGAAAAGAAUUAGAAGGAACAUGAGGAUCACCCAUGUUAGAA [EteRNA is fun!]”, the “apparent KD of MS2 coat protein” value in the data set with MS2 coat protein [1] is 47.8 nM; with MS2 coat protein [2], 37.6 nM.

Regarding “AAAAAGUCAGGAUAUGCAGACAAAGCAAAAAAGCAAUGUCUGCAGAAGGGACAUGAGGAUCACCCAUGUAAAAA [Ex 4 May 9]”, the “apparent KD of MS2 coat protein” value was 57.7 nM in the data set on MS2 coat protein [1] and 44.6 nM in the data set with MS2 coat protein [2].

As to “AGGAUGUCAGGAUAUGUGUAAAGAAUAAAACAAAUAACAACACAGAAGGGACAUGAGGAUCACCCAUGUUACGA [May 43]”, the “apparent KD of MS2 coat protein” value with MS2 coat protein [1] stood at 31.1 nM; with MS2 coat protein [2], 37.3 nM.

Regarding “AGGAUGUCAGGAUAUGCGUGAAGAAUAAAACAAAUAACAACGCAGAAGGGACAUGAGGAUCACCCAUGUUAAGA [May 46]”, the “apparent KD of MS2 coat protein” value with MS2 coat protein [1] is 45.2 nM; with MS2 coat protein [2], 68.3 nM.

Take “GAAAAAGGAGGAUAUACGAACAUGUCAAAAGACGUGAAGGGACAUGAGGAUCACCCAUGUAGAAGGCUUAAAAG [Mat - Exclusion 2 - JL mod - D94]”: the “apparent KD of MS2 coat protein” value in the data set on MS2 coat protein [1] stood at 37.4 nM; in the data set on MS2 coat protein [2], 15.7 nM.

In the case of “AAGAAGUAAGGAUAUGCUGCUCGUCACAAAAGUGAUGAGUAGCAGAAGGUACAUGAGGAUCACCCAUGUUAAGA [JL eternac mod 4]”, the “apparent KD of MS2 coat protein” value in the data set with MS2 coat protein [1] came to 24.4 nM; in the data set with MS2 coat protein [2] it was 20.6 nM.

Consider “AGUCAUACAGGAUAUACAUGAGGAUCACCCAUGUUUAUCCUAAAAGGGUGAUCCUCAUGUAGAAGGGUAUGACA [EX3 209: Super Stable 9]”, for which the results for the “apparent KD of MS2 coat protein” value with MS2 coat protein [1] and in the data set with MS2 coat protein [2] were 23.7 nM and 14.5 nM, respectively.

Consider “AACAAACAUGAGGAUCACCCAUGUGAGGAUAUCGGAUGUACAGCGCAAUUAGAAUUAACGAGAAGGCACACUUA [Ex1_Neo]”, for which the “apparent KD of MS2 coat protein” value in the data set with MS2 coat protein [1] was 22.7 nM; in the data set on MS2 coat protein [2], 22.6 nM.

For the origin of these results see the supplement of paper PMC9170038.
